This is an account of results in the Immune Epitope Database (IEDB).

In test [1] the target is HLA-A*02:01. The test can be described thus: IEDB peptide-MHC binding, purified MHC/competitive/fluorescence; filed as Kd, often an IC50 or EC50 that approximates it; ≥ and ≤ were set here for values at or beyond the usual limits of such assays.
The target in test [2] is HLA-A*23:01. Nature of the test: IEDB peptide-MHC binding, purified MHC/competitive/radioactivity; filed as Kd, often an IC50 or EC50 that approximates it; ≥ and ≤ were set here for values at or beyond the usual limits of such assays.
Test [3] addresses HLA-A*30:02. The description is as above.
The target of test [4] is HLA-A*26:01. Described as above.
The target of test [5] is HLA-A*24:02. The test is described as above.
Test [6] concerns the target HLA-A*01:01. The description is as above.
In test [7] the target is HLA-A*29:02. The test is described as above.
Test [8] deals with HLA-A*68:01. The test is described as above. The note with it: source organism: SARS coronavirus Tor2.
Test [9] deals with HLA-A*11:01. The test is described as above. To be noted: source organism: SARS coronavirus Tor2.
Test [10] has as its target HLA-A*03:01. Described as above. To be noted: source organism: SARS coronavirus Tor2.
Test [11] concerns the target HLA-A*31:01. The test is described as above. The note with it: source organism: SARS coronavirus Tor2.
Test [12] has as its target HLA-A*33:01. Described as above. To be noted: source organism: SARS coronavirus Tor2.
Test [13] deals with HLA-A*11:01. The test can be described thus: IEDB peptide-MHC binding, purified MHC/direct/fluorescence; filed as Kd, often an IC50 or EC50 that approximates it; ≥ and ≤ were set here for values at or beyond the usual limits of such assays. The note with it: source organism: SARS-CoV1.
The target in test [14] is HLA-B*58:01. Described as above. To be noted: source organism: SARS-CoV1.
For test [15], the target named is HLA-B*15:01. Described as above. The note with it: source organism: SARS-CoV1.
The target of test [16] is HLA-A*01:01. Described as above. The note with it: source organism: SARS-CoV1.
The mark [17] stands for this setting: source organism: Mammarenavirus lassaense.
[18] abbreviates: source organism: SARS coronavirus Tor2.
The mark [19] stands for this setting: source organism: Mammarenavirus juninense.
The mark [20] stands for this setting: source organism: Mammarenavirus brazilense.

Turning to ALSSDGDTV, the Kd (in general, the concentration at which binding is half-saturated) in [1] (source organism: Vaccinia virus Tian Tan) was 9.6 nM.

With CFISVNDRLV, the Kd in [2] (setting [17]) was 358 nM; in test [3] (setting [17]) it was 573 nM; in test [4] (setting [17]), ≥ 69700 nM; in [5] (setting [17]) it was 11400 nM; in test [6] (setting [17]), 18100 nM; in test [7] (setting [17]), 5260 nM.

Take EYKLQQGTF: the Kd in test [2] (setting [18]) is ≥ 35100 nM; in test [3] (setting [18]), ≥ 78900 nM; in test [4] (setting [18]), ≥ 77900 nM; in test [5] (setting [18]) it was 11300 nM; in [6] (setting [18]), ≥ 78100 nM; in test [7] (setting [18]), ≥ 31600 nM.

For YCNYTKFWY, the Kd was ≥ 22200 nM in test [2] (setting [19]); 674 nM in test [3] (setting [19]); ≥ 77900 nM in test [4] (setting [19]); ≥ 77500 nM in [5] (setting [19]); 18500 nM in test [6] (setting [19]); 2000 nM in test [7] (setting [19]).

For the sequence LFLAFVVFLL, the Kd in test [2] (setting [18]) was found to be 846 nM; in [3] (setting [18]), 2000 nM; in test [4] (setting [18]), 251 nM; in test [5] (setting [18]), 11700 nM; in [6] (setting [18]) it was 537 nM; in test [7] (setting [18]), 793 nM.

As to FNAPALQEAY, the Kd in test [2] (setting [18]) was ≥ 70000 nM; in test [3] (setting [18]), 336 nM; in [4] (setting [18]), 526 nM; in test [5] (setting [18]), ≥ 70300 nM; in test [6] (setting [18]) it was 284 nM; in [7] (setting [18]) it was 26.1 nM.

With VGEEFFHQY, the Kd was 251 nM in test [2] (setting [19]); 6.74 nM in test [3] (setting [19]); ≥ 77900 nM in [4] (setting [19]); 1620 nM in test [5] (setting [19]); 3340 nM in test [6] (setting [19]); 2380 nM in test [7] (setting [19]).

On to YFMKFRRVF, for which the Kd was ≥ 26900 nM in test [2] (setting [18]); ≥ 22100 nM in test [3] (setting [18]); ≥ 49300 nM in [4] (setting [18]); ≥ 77600 nM in test [5] (setting [18]); ≥ 78100 nM in test [6] (setting [18]); 12700 nM in test [7] (setting [18]).

AMDEFIQRY: the Kd is ≥ 77700 nM in test [8]; 3230 nM in test [9]; ≥ 20100 nM in test [2] (setting [18]); 1630 nM in test [10]; 1390 nM in test [3] (setting [18]); ≥ 77900 nM in test [11]. The Kd in test [4] (setting [18]) is ≥ 84100 nM; in test [12], ≥ 77700 nM; in [5] (setting [18]), 7900 nM; in test [6] (setting [18]), 64.4 nM; in test [7] (setting [18]), 896 nM.

As to SSLPSYAAY, the Kd was ≥ 77800 nM in [2] (setting [18]); 0.27 nM in [3] (setting [18]); 5040 nM in test [4] (setting [18]); ≥ 77600 nM in test [5] (setting [18]); 1.49 nM in [7] (setting [18]); 390 nM in [13]. For the same sequence, the Kd in test [14] worked out at 286 nM; in test [15], 52.6 nM; in test [16] it was 1620 nM.

AVAANIVLTV displayed a Kd in test [1] (source organism: Homo sapiens) of 207 nM.

Take RLSFKELLVY: the Kd in test [2] (setting [18]) was 14700 nM; in test [3] (setting [18]), 226 nM; in test [4] (setting [18]), 10100 nM; in [5] (setting [18]) it was 15700 nM; in test [6] (setting [18]), 239 nM; in test [7] (setting [18]), 86.2 nM.

In [1] (source organism: Japanese encephalitis virus), AIVGGLAEL came in with a Kd of 12 nM.

On to YQPDTGNYIL, for which the Kd in test [2] (setting [20]) stood at 1720 nM; in test [5] (setting [20]), 6000 nM; in [7] (setting [20]), 5520 nM.

As for LFQLIFFLTL, the Kd in test [2] (setting [20]) was 9190 nM; in test [5] (setting [20]) it was ≥ 53900 nM; in [7] (setting [20]), 673 nM.

Take DWVVERVRWL: the Kd in [2] (setting [19]) is ≥ 51900 nM; in [5] (setting [19]), ≥ 48700 nM; in [7] (setting [19]), ≥ 71400 nM.
